Test results published in US20230124669A1 (ADAGENE, published 2023).

B1: TY22121 (bispecific antibody, human IgG1, kappa)
heavy: DIQLTQSPSSLSASVGDRVTITCRASQSIPSFLNWYQQKPGKAPKLLIYAASSLQSGVPSRFSGSGSGTDFTLTISSLQPEDFATYYCQHYISWPRQFTFGQGTKVEIKRTVAAPSVFIFPPSDEQLKSGTASVVCLLNNFYPREAKVQWKVDNALQSGNSQESVTEQDSKDSTYSLSSTLTLSKADYEKHKVYACEVTHQGLSSPVTKSFNRGEC
light: not shown
notes: Morrison format: anti-PDL1 Fab, anti-CD137 scFv at the C-terminus of the Fc; IgG1; heavy chain = VH-CH1-hinge-CH2-CH3-linker-scFv; also called PDL1 × CD137 bispecific antibody, format TYF01
B2: TY22176 (bispecific antibody, human IgG1, kappa, N297A)
heavy: B1 heavy
light: EVQLVESGGGLVQPGGSLRLSCAASGYSISSGYYWGWIRQAPGKGLEWIGIIYPSGGGTNYAQKFQGRVTISRDNSKNTLYLQLNSLRAEDTAVYYCARGGGLGFDYWGQGTLVTVSSASTKGPSVFPLAPSSKSTSGGTAALGCLVKDYFPEPVTVSWNSGALTSGVHTFPAVLQSSGLYSLSSVVTVPSSSLGTQTYICNVNHKPSNTKVDKRVEPKSCDKTHTCPPCPAPELLGGPSVFLFPPKPKDTLMISRTPEVTCVVVDVSHEDPEVKFNWYVDGVEVHNAKTKPREEQYASTYRVVSVLTVLHQDWLNGKEYKCKVSNKALPAPIEKTISKAKGQPREPQVYTLPPSREEMTKNQVSLTCLVKGFYPSDIAVEWESNGQPENCYKTTPPVLDCDGSFFLYSKLTVDKSRWQQGNVFSCSVMHEALHNHYTQKSLSLSPGSGGGSEVQLVESGGGLVQPGGSLRLSCAASGFSLSTGGVGVGWIRQAPGKCLEWLALIDWADDKYYSPSLKSRLTISRDNSKNTLYLQLNSLRAEDTAVYYCARGGSDTVIGDWFAYWGQGTLVTVSSGGGGSGGGGSGGGGSGGGGSDIQLTQSPSSLSASVGDRVTITCRASQSIGSYLAWYQQKPGKAPKLLIYDASNLETGVPSRFSGSGSGTDFTLTISSLQPEDFATYYCQQGYYLWTFGCGTKVEIKR
notes: Morrison format: anti-PDL1 Fab, anti-CD137 scFv; IgG1 with N390C:S400'C and N297A; also called PDL1 × CD137 bispecific antibody, format TYF04
B3: TY22177 (bispecific antibody, human IgG1, kappa, N297A)
heavy: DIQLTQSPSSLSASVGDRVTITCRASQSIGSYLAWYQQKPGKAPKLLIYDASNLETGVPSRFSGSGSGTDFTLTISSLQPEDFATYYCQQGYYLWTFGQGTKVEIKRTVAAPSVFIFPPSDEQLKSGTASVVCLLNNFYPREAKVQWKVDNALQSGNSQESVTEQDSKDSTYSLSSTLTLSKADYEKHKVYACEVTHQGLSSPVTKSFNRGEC
light: EVQLVESGGGLVQPGGSLRLSCAASGFSLSTGGVGVGWIRQAPGKGLEWLALIDWADDKYYSPSLKSRLTISRDNSKNTLYLQLNSLRAEDTAVYYCARGGSDTVIGDWFAYWGQGTLVTVSSASTKGPSVFPLAPSSKSTSGGTAALGCLVKDYFPEPVTVSWNSGALTSGVHTFPAVLQSSGLYSLSSVVTVPSSSLGTQTYICNVNHKPSNTKVDKRVEPKSCDKTHTCPPCPAPELLGGPSVFLFPPKPKDTLMISRTPEVTCVVVDVSHEDPEVKFNWYVDGVEVHNAKTKPREEQYASTYRVVSVLTVLHQDWLNGKEYKCKVSNKALPAPIEKTISKAKGQPREPQVYTLPPSREEMTKNQVSLTCLVKGFYPSDIAVEWESNGQPENCYKTTPPVLDCDGSFFLYSKLTVDKSRWQQGNVFSCSVMHEALHNHYTQKSLSLSPGSGGGSEVQLVESGGGLVQPGGSLRLSCAASGYSISSGYYWGWIRQAPGKCLEWIGIIYPSGGGTNYAQKFQGRVTISRDNSKNTLYLQLNSLRAEDTAVYYCARGGGLGFDYWGQGTLVTVSSGGGGSGGGGSGGGGSGGGGSDIQLTQSPSSLSASVGDRVTITCRASQSIPSFLNWYQQKPGKAPKLLIYAASSLQSGVPSRFSGSGSGTDFTLTISSLQPEDFATYYCQHYISWPRQFTFGCGTKVEIKR
notes: Morrison format: anti-CD137 Fab, anti-PDL1 scFv; IgG1 with N390C:S400'C and N297A; also called CD137 × PDL1 bispecific antibody, format TYF04
B4: TY22359 (bispecific antibody, human IgG1, kappa, N297A)
heavy: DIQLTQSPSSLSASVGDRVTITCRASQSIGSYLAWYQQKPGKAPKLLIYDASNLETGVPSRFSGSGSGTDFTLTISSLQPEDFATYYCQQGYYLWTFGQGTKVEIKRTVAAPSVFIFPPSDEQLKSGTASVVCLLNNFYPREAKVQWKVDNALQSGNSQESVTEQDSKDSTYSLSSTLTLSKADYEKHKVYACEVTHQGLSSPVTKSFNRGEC
light: EVQLVESGGGLVQPGGSLRLSCAASGFSLSTGGVGVGWIRQAPGKGLEWLALIDWADDKYYSPSLKSRLTISRDNSKNTLYLQLNSLRAEDTAVYYCARGGSDTVIGDWFAYWGQGTLVTVSSASTKGPSVFPLAPSSKSTSGGTAALGCLVKDYFPEPVTVSWNSGALTSGVHTFPAVLQSSGLYSLSSVVTVPSSSLGTQTYICNVNHKPSNTKVDKRVEPKSCDKTHTCPPCPAPELLGGPSVFLFPPKPKDTLMISRTPEVTCVVVDVSHEDPEVKFNWYVDGVEVHNAKTKPREEQYASTYRVVSVLTVLHQDWLNGKEYKCKVSNKALPAPIEKTISKAKGQPREPQVYTLPPSREEMTKNQVSLTCLVKGFYPSDIAVEWESNGQPENCYKTTPPVLDCDGSFFLYSKLTVDKSRWQQGNVFSCSVMHEALHNHYTQKSLSLSPGSGGGSGGGGSEVQLVESGGGLVQPGGSLRLSCAASGYSISSGYYWGWIRQAPGKCLEWIGIIYPSGGGTNYAQKFQGRVTISRDNSKNTLYLQLNSLRAEDTAVYYCARGGGLGFDYWGQGTLVTVSSGGGGSGGGGSGGGGSGGGGSDIQLTQSPSSLSASVGDRVTITCRASQSIPSFLNWYQQKPGKAPKLLIYAASSLQSGVPSRFSGSGSGTDFTLTISSLQPEDFATYYCQHYISWPRQFTFGCGTKVEIKR
notes: Morrison format: anti-CD137 Fab, anti-PDL1 scFv; also called CD137 × PDL1 bispecific antibody, format TYF05; Format 5
B5: TY22165 (bispecific antibody, human IgG4 S228P, kappa)
heavy: B1 heavy
light: EVQLVESGGGLVQPGGSLRLSCAASGYSISSGYYWGWIRQAPGKGLEWIGIIYPSGGGTNYAQKFQGRVTISRDNSKNTLYLQLNSLRAEDTAVYYCARGGGLGFDYWGQGTLVTVSSASTKGPSVFPLAPCSRSTSESTAALGCLVKDYFPEPVTVSWNSGALTSGVHTFPAVLQSSGLYSLSSVVTVPSSSLGTKTYTCNVDHKPSNTKVDKRVESKYGPPCPPCPAPEFLGGPSVFLFPPKPKDTLMISRTPEVTCVVVDVSQEDPEVQFNWYVDGVEVHNAKTKPREEQFNSTYRVVSVLTVLHQDWLNGKEYKCKVSNKGLPSSIEKTISKAKGQPREPQVYTLPPSQEEMTKNQVSLTCLVKGFYPSDIAVEWESNGQPENCYKTTPPVLDCDGSFFLYSRLTVDKSRWQEGNVFSCSVMHEALHNHYTQKSLSLSLGSGGGSEVQLVESGGGLVQPGGSLRLSCAASGFSLSTGGVGVGWIRQAPGKCLEWLALIDWADDKYYSPSLKSRLTISRDNSKNTLYLQLNSLRAEDTAVYYCARGGSDTVIGDWFAYWGQGTLVTVSSGGGGSGGGGSGGGGSGGGGSDIQLTQSPSSLSASVGDRVTITCRASQSIGSYLAWYQQKPGKAPKLLIYDASNLETGVPSRFSGSGSGTDFTLTISSLQPEDFATYYCQQGYYLWTFGCGTKVEIKR
notes: Morrison format: anti-PDL1 Fab, anti-CD137 scFv; IgG4(S228P) with N390C:S400'C; also called PDL1 × CD137 bispecific antibody, format TYF07
B6: TY22166 (bispecific antibody, human IgG4 S228P, kappa)
heavy: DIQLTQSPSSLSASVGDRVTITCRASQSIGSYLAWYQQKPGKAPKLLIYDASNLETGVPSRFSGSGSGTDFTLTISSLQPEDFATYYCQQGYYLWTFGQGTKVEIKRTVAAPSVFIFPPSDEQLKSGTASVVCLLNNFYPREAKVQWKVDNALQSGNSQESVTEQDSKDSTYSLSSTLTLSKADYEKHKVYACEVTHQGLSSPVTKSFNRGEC
light: EVQLVESGGGLVQPGGSLRLSCAASGFSLSTGGVGVGWIRQAPGKGLEWLALIDWADDKYYSPSLKSRLTISRDNSKNTLYLQLNSLRAEDTAVYYCARGGSDTVIGDWFAYWGQGTLVTVSSASTKGPSVFPLAPCSRSTSESTAALGCLVKDYFPEPVTVSWNSGALTSGVHTFPAVLQSSGLYSLSSVVTVPSSSLGTKTYTCNVDHKPSNTKVDKRVESKYGPPCPPCPAPEFLGGPSVFLFPPKPKDTLMISRTPEVTCVVVDVSQEDPEVQFNWYVDGVEVHNAKTKPREEQFNSTYRVVSVLTVLHQDWLNGKEYKCKVSNKGLPSSIEKTISKAKGQPREPQVYTLPPSQEEMTKNQVSLTCLVKGFYPSDIAVEWESNGQPENCYKTTPPVLDCDGSFFLYSRLTVDKSRWQEGNVFSCSVMHEALHNHYTQKSLSLSLGSGGGSEVQLVESGGGLVQPGGSLRLSCAASGYSISSGYYWGWIRQAPGKCLEWIGIIYPSGGGTNYAQKFQGRVTISRDNSKNTLYLQLNSLRAEDTAVYYCARGGGLGFDYWGQGTLVTVSSGGGGSGGGGSGGGGSGGGGSDIQLTQSPSSLSASVGDRVTITCRASQSIPSFLNWYQQKPGKAPKLLIYAASSLQSGVPSRFSGSGSGTDFTLTISSLQPEDFATYYCQHYISWPRQFTFGCGTKVEIKR
notes: Morrison format: anti-CD137 Fab, anti-PDL1 scFv; IgG4(S228P) with N390C:S400'C; also called CD137 × PDL1 bispecific antibody, format TYF07
B7: TY22362 (bispecific antibody, human IgG4 S228P, kappa)
heavy: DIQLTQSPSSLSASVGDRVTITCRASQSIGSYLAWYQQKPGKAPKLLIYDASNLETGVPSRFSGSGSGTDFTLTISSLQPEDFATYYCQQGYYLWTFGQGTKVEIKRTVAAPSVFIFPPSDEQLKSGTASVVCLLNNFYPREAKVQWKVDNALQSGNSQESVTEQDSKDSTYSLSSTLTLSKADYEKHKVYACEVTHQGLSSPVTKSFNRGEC
light: EVQLVESGGGLVQPGGSLRLSCAASGFSLSTGGVGVGWIRQAPGKGLEWLALIDWADDKYYSPSLKSRLTISRDNSKNTLYLQLNSLRAEDTAVYYCARGGSDTVIGDWFAYWGQGTLVTVSSASTKGPSVFPLAPCSRSTSESTAALGCLVKDYFPEPVTVSWNSGALTSGVHTFPAVLQSSGLYSLSSVVTVPSSSLGTKTYTCNVDHKPSNTKVDKRVESKYGPPCPPCPAPEFLGGPSVFLFPPKPKDTLMISRTPEVTCVVVDVSQEDPEVQFNWYVDGVEVHNAKTKPREEQFNSTYRVVSVLTVLHQDWLNGKEYKCKVSNKGLPSSIEKTISKAKGQPREPQVYTLPPSQEEMTKNQVSLTCLVKGFYPSDIAVEWESNGQPENCYKTTPPVLDCDGSFFLYSRLTVDKSRWQEGNVFSCSVMHEALHNHYTQKSLSLSLGSGGGSGGGGSEVQLVESGGGLVQPGGSLRLSCAASGYSISSGYYWGWIRQAPGKCLEWIGIIYPSGGGTNYAQKFQGRVTISRDNSKNTLYLQLNSLRAEDTAVYYCARGGGLGFDYWGQGTLVTVSSGGGGSGGGGSGGGGSGGGGSDIQLTQSPSSLSASVGDRVTITCRASQSIPSFLNWYQQKPGKAPKLLIYAASSLQSGVPSRFSGSGSGTDFTLTISSLQPEDFATYYCQHYISWPRQFTFGCGTKVEIKR
notes: Morrison format: anti-CD137 Fab, anti-PDL1 scFv; also called CD137 × PDL1 bispecific antibody, format TYF08

What follows are binders tested against T1, Human PDL1 (SPR analyte) (human, UniProt Q9NZQ7 19-238, limits assumed) (assay: SPR (Biacore T200), antibody captured by anti-human IgG on CM5 chip, antigen injected as analyte, 1:1 Langmuir fit).
T1 construct: also called PDL1H
T1 sequence (Q9NZQ7 19-238 limits assumed): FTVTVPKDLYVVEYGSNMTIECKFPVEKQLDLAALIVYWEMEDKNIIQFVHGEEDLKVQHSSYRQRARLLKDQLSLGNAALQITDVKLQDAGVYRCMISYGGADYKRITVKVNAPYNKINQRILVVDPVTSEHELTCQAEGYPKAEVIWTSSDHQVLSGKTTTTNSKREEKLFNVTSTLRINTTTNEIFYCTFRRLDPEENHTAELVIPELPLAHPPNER
Method: (§1) Biacore T200 (GE Healthcare) was used as a high performance system for real-time biomolecular interaction analysis, using surface plasmon resonance technology (“SPR”). During the measurement, anti-human IgG monoclonal antibody from the Human Antibody Capture Kit provided by Biacore was immobilized on CM5 chips, and IgG sample was injected onto sensor chip. Analytes were injected onto IgG captured flow cell for binding kinetic analysis in HBS-EP buffer.
With B1 the Kd was 6.9 nM.
Binder B2 has a Kd of 8.1 nM.
B3 was tested, and the Kd was 33.4 nM.
Work on B4 yielded a Kd of 29.8 nM.
Work on B5 yielded a Kd of 7.7 nM.
Work on B6 yielded a Kd of 42 nM.
With B7 the Kd was 40.3 nM.

What follows are binders tested against T2, Human CD137 (SPR analyte) (human, UniProt Q07011 24-186, limits assumed) in the same assay as above.
T2 construct: also called CD137H
Method: as §1
B1 was tested, and the Kd was 14.1 nM.
Work on B2 yielded a Kd of 7.1 nM.
In the case of B3, the Kd is reported as 7 nM.
Work on B4 yielded a Kd of 2.7 nM.
With B5 the Kd was 5.2 nM.
For B6, the Kd was 3 nM.
Binder B7 has a Kd of 2.8 nM.

What follows are binders tested against T3, mouse PDL1 expressed on cells (mouse, UniProt Q9EP73 19-290) (assay: flow cytometry, antigen transiently expressed on yeast or HEK293F cells, IgG at 100 nM, Alexa Fluor 647 anti-human Fc detection (FIG. 13)).
T3 construct: whole, on cells
T3 sequence (Q9EP73 19-290): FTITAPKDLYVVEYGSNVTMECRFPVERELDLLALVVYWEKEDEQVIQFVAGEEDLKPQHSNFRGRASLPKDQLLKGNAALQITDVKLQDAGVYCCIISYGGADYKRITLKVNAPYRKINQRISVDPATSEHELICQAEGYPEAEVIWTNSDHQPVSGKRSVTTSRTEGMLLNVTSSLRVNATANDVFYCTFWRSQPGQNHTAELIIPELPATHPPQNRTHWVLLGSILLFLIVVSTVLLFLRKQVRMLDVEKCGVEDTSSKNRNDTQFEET
Method: (§2) The affinity of antibodies was also assessed against human, monkey and mouse CD137 or PDL1 that were transiently expressed on the surface of yeast or HEK293F cells. Briefly, yeast or HEK293F cells were transfected with a plasmid expressing human, monkey or mouse CD137 or PDL1. After 48 hours, the transfected cells were harvested and then washed. Cells were then incubated with IgGs (each at 100 nM) at 4° C. in the shaking bed for 1 hour shaking at 300 rpm, protected from light. For simultaneously binding, cell were incubated with biotinylated human CD137 or PDL1 protein fused with human Fc fragment, and SA-PE (streptavidin, phycoerythrin conjugated). For cross-reactivity, cells were incubated with Alexa Fluor 647 conjugated mouse anti-human Fc antibodies. The mixtures were incubated at 4° C. in the shaking bed for 30 minutes shaking at 300 rpm, protected from light. The cells were washed once prior to analysis by flow cytometry (Beckman CytoFlex).
B1: binds.

What follows are binders tested against T4, mouse CD137 expressed on cells (mouse, UniProt P20334 24-256) in the same assay as above.
T4 construct: whole, on cells
T4 sequence (looked up): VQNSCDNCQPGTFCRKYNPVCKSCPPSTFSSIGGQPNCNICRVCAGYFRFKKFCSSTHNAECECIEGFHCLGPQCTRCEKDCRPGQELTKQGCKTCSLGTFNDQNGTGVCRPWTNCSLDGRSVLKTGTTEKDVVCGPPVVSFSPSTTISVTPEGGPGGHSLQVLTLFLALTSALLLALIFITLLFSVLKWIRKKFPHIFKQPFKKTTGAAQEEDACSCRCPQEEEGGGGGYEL
Method: as §2
B1: binds.
